# Laboratory results: paper PMC2171822
# Target: tetramethylrhodamine-labeled microtubule (tubulin purified from bovine brain) (bovine) (UniProt Q6B856)
# Assay: fluorescence microscopy of kinesin-coated beads binding to a single microtubule
substance,measurement,value
native kinesin purified from bovine brain (complex),average binding frequency,0.018 μm^−1 s^−1
same,koff,0.004 s⁻¹
